Results reported in patent US7208581 (BURNHAM INSTITUTE FOR MEDICAL RESEARCH, dated 2007).

B3: GST-LTβR(ct) (receptor, UniProt P36941 249-435, looked up)
chain: KSHPSLCRKLGSLLKRRPQGEGPNPVAGSWEPPKAHPYFPDLVQPLLPISGDVSPVSTGLPAAPVLEAGVPQQQSPLDLTREPQLEPGEQSQVAHGTNGIHVTGGSMTITGNIYIYNGPVLGGPPGPGDLPATPEPPYPIPEEGDPGPPGLSTPHQEDGKAWHLAETEHCGATPSNRGPRNQFITHD
notes: domain: cytosolic domain; also called lymphotoxin-β receptor; not shown: glutathione S-transferase tag of plasmid pGEX-LTβR(ct)
B4: GST-DR4(ct) (receptor, UniProt O00220 263-468, looked up)
chain: CIGSGCGGDPKCMDRVCFWRLGLLRGPGAEDNAHNEILSNADSLSTFVSEQQMESQEPADLTGVTVQSPGEAQCLLGPAEAEGSQRRRLLVPANGADPTETLMLFFDKFANIVPFDSWDQLMRQLDLTKNEIDVVRAGTAGPGDALYAMLMKWVNKTGRNASIHTLLDALERMEERHAREKIQDLLVDSGKFIYLEDGTGSAVSLE
notes: domain: cytosolic domain; not shown: glutathione S-transferase tag of plasmid pGEX-DR4(ct)
B6: GST-SPOP (1-180) (other)
chain: MSRVPSPPPPAEMSSGPVAESWCYTQIKVVKFSYMWTINNFSFCREEMGEVIKSSTFSSGANDKLKWCLRVNPKGLDEESKDYLSLYLLLVSCPKSEVRAKFKFSILNAKGEETKAMESQRAYRFVQGKDWGFKKFIRRDFLLDEANGLLPDDKLTLFCEVSVVQDSVNISGQNTMNMVK
notes: Bacterial GST fusion purified on glutathione-Sepharose. cDNA amplified from Jurkat cells; also called GST-SPOP fusion protein; GST-fused TPBD of SPOP; not shown: glutathione S-transferase tag encoded by the pGEX4T vector (Pharmacia)
B7: SPOP (1-180), not GST-fused (pcDNA3-myc-SPOP (1-180)) (other)
chain: MSRVPSPPPPAEMSSGPVAESWCYTQIKVVKFSYMWTINNFSFCREEMGEVIKSSTFSSGANDKLKWCLRVNPKGLDEESKDYLSLYLLLVSCPKSEVRAKFKFSILNAKGEETKAMESQRAYRFVQGKDWGFKKFIRRDFLLDEANGLLPDDKLTLFCEVSVVQDSVNISGQNTMNMVK
notes: also called in vitro translated SPOP (1-180); TPBD of SPOP; not shown: myc tag of the pcDNA3-myc vector
B8: TRAF7 (282-435), not GST-fused (pcDNA3-myc-TRAF7 (282-435)) (other)
chain: FTSELVPSYDSATFVLENFSTLRQRADPVYSPPLQVSGLCWRLKVYPDGNGVVRGYYLSVFLELSAGLPETSKYEYRVEMVHQSCNDPTKNIIREFASDFEVGECWGYNRFFRLDLLANEGYLNPQNDTVILRFQVRSPTFFQKSRDQHWYIT
notes: transfected in the reporter assay; also called in vitro translated TRAF7 (282-435); TRAF domain of TRAF7; not shown: myc tag of the pcDNA3-myc vector

Assays:
GST-HAUSP (1-213) = biological target: T1, GST-HAUSP (1-213) (human, UniProt Q93009 1-213); test: GST pull-down, 35S in vitro translated protein, SDS-PAGE and fluorography
T1 construct: Bacterial GST fusion purified on glutathione-Sepharose. cDNA amplified from Jurkat cells; also called GST-fused TPBD of HAUSP; HAUSP TPBD; not shown: glutathione S-transferase tag encoded by the pGEX4T vector (Pharmacia)
T1 sequence (Q93009 1-213): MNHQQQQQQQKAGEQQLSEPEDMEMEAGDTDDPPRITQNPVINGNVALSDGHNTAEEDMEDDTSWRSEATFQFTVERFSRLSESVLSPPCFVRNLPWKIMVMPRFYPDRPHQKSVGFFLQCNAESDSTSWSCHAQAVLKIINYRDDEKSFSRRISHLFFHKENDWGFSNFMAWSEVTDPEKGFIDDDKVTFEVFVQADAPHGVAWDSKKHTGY

GST-SPOP (1-180) = biological target: B6; test: as above
[1] = biological target: B8; test: GST pull-down from 293T cell lysate, anti-Myc immunoblot
GST-DR4(ct) = biological target: B4; test: GST pull-down, 35S in vitro translated protein, SDS-PAGE and fluorography
[2] = biological target: T2, hTRAF 2 (complete open reading frame, in vitro translated from pcDNA3-HA-TRAF2) (human, UniProt Q12933 2-501, 35S-methionine labelled); test: as above
T2 construct: mature; also called human TRAF 2; not shown: HA tag of the pcDNA3-HA vector
T2 sequence (looked up): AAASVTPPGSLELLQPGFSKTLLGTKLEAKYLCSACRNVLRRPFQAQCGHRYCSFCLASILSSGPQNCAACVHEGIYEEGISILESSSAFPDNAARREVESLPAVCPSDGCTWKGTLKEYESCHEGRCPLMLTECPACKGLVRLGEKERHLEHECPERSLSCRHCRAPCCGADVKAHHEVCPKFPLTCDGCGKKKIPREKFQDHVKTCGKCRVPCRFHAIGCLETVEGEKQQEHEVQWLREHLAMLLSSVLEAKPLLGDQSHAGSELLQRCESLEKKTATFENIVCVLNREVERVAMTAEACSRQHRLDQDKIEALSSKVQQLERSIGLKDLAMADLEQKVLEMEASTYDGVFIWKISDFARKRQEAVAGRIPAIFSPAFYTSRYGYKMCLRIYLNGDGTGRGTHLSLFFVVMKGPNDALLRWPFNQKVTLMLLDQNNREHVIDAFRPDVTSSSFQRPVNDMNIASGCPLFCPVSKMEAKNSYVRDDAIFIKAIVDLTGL

[3] = biological target: T3, hTRAF4 (complete open reading frame, in vitro translated from pcDNA3-HA-TRAF4) (human, UniProt Q9BUZ4 1-470, 35S-methionine labelled); test: as above
T3 construct: mature; also called human TRAF 4; not shown: HA tag of the pcDNA3-HA vector
T3 sequence (looked up): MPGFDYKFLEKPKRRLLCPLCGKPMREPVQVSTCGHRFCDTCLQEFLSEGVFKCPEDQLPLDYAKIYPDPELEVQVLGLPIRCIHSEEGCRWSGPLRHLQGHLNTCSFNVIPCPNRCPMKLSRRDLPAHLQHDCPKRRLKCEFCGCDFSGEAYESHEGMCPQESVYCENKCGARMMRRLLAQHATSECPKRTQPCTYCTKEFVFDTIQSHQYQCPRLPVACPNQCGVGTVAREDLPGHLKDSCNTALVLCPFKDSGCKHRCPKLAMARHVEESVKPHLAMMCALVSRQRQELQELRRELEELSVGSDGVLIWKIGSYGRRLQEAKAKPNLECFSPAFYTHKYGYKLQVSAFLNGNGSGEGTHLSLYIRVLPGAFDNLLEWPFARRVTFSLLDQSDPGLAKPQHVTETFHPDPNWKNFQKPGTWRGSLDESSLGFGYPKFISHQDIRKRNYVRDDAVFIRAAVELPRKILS

[4] = biological target: T4, hTRAF5 (complete open reading frame, in vitro translated from pcDNA3-Flag-TRAF5) (human, UniProt O00463 1-557, 35S-methionine labelled); test: as above
T4 construct: mature; also called human TRAF 5; not shown: Flag tag of the pcDNA3-Flag vector
T4 sequence (O00463 whole entry): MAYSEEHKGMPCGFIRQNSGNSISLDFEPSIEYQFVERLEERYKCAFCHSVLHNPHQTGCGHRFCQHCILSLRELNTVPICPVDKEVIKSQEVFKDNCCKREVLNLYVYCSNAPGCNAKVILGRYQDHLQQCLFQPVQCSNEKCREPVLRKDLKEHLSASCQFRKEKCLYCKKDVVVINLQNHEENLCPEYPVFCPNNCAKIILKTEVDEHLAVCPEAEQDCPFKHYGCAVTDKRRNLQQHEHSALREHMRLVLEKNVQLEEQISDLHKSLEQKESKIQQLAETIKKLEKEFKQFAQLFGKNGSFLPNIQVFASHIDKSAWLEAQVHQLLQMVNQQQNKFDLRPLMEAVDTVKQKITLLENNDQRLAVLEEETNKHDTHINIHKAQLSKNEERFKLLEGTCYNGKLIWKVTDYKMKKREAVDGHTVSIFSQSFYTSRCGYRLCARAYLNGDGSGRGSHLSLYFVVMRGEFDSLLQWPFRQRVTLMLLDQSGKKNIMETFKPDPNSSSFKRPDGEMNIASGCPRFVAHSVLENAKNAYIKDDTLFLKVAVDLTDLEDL

[5] = biological target: T5, full-length I-TRAF (in vitro translated) (UniProt Q92844 1-425, limits assumed, 35S-methionine labelled); test: as above
T5 construct: mature
T5 sequence (looked up): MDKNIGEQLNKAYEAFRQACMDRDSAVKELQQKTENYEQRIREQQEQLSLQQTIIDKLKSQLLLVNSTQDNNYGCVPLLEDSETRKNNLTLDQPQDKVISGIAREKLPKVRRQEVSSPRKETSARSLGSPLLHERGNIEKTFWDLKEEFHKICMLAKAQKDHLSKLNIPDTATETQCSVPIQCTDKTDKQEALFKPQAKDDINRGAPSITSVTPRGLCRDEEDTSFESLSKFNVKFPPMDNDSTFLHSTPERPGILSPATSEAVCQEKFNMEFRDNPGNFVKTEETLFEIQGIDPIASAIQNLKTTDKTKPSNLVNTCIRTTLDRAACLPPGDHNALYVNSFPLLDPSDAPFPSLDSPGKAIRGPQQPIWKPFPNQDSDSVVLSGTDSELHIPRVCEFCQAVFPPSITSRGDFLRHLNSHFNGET

[6] = biological target: B7; test: as above
GST-LTβR(ct) = biological target: B3; test: as above

B1: GST-TNF-R2(ct) (receptor, UniProt P20333 288-461, looked up)
chain: KKKPLCLQREAKVPHLPADKARGTQGPEQQHLLITAPSSSSSSLESSASALDRRAPTRNQPQAPGVEASGAGEARASTGSSDSSPGGHGTQVNVTCIVNVCSSSDHSSQCSSQASSTMGDTDSSPSESPKDEQVPFSKEECAFRSQLETPETLLGSTEEKPLPLGVPDAGMKPS
notes: domain: cytosolic domain; Plasmid provided by Dr. C; Ware; also called TNF-receptor 2; not shown: glutathione S-transferase tag of plasmid pGEX-TNF-R2(ct)
GST-HAUSP (1-213)
  binding result: no binding

B2: GST-CD40(ct) (receptor, UniProt P25942 216-277, looked up)
chain: KKVAKKPTNKAPHPKQEPQEINFPDDLPGSNTAAPVQETLHGCQPVTQEDGKESRISVQERQ
notes: domain: cytosolic domain; not shown: glutathione S-transferase tag of plasmid pGEX-CD40(ct)
GST-HAUSP (1-213)
  binding result: no binding
GST-SPOP (1-180)
  binding result: no binding

## B3
GST-HAUSP (1-213)
  binding result: no binding

## B4
GST-HAUSP (1-213)
  binding result: no binding

B5: GST-fusion protein containing the cytosolic domain of HVEM (receptor, UniProt Q92956 224-283, looked up)
chain: CVKRRKPRGDVVKVIVSVQRKRQEAEGEATVIEALQAPPDVTTVAVEETIPSFTGRSPNH
notes: domain: cytosolic domain; Only named in the 293T lysate experiment; not shown: glutathione S-transferase tag
[1]
  binding result: no binding

## B6
GST-DR4(ct)
  binding result: no binding
[2]
  binding result: no binding
[3]
  binding result: no binding
[4]
  binding result: no binding
[5]
  binding result: no binding
[6]
  binding result: no binding
GST-LTβR(ct)
  binding result: no binding

## B7
GST-HAUSP (1-213)
  binding result: no binding

## B8
GST-HAUSP (1-213)
  binding result: no binding
GST-SPOP (1-180)
  binding result: no binding

B9: GST-Fas(ct) (receptor, UniProt P25445 191-335, looked up)
chain: KRKEVQKTCRKHRKENQGSHESPTLNPETVAINLSDVDLSKYITTIAGVMTLSQVKGFVRKNGVNEAKIDEIKNDNVQDTAEQKVQLLRNWHQLHGKKEAYDTLIKDLKKANLCTLAEKIQTIILKDITSDSENSNFRNEIQSLV
notes: domain: cytosolic domain; not shown: glutathione S-transferase tag of plasmid pGEX-Fas(ct)
GST-HAUSP (1-213)
  binding result: no binding
GST-SPOP (1-180)
  binding result: no binding
